# Where a chain is given by its changes, count along the chain named.
# B1: BIIB-12-897 (antibody, V domains shown)
# VH: QLQLQESGPGLVKPSETLSLTCTVSGGSISSSSYYWGWIRQPPGKGLEWIGSIYYSGSTYYNPSLKSRVTISVDTSKNQFSLKLSSVTAADTAVYYCAREGRTYYGGWFDPWGQGTLVTVSS
# VL: EIVLTQSPGTLSLSPGERATLSCRASQSVSSSYLAWYQQKPGQAPRLLIYGASSRATGIPDRFSGSGSGTDFTLTISRLEPEDFAVYYCQQDGNYPYTFGGGTKVEIK
# notes: IgG
# B2: BIIB-12-905 (antibody, V domains shown)
# VH: QVQLVESGGGVVQPGRSLRLSCAASGFTFSSYGMHWVRQAPGKGLEWVAVISYDGSNKYYADSVKGRFTISRDNSKNTLYLQMNSLRAEDTAVYYCAKGGTYLDTWGQGTLVTVSS
# VL: B1 VL with S30R, D92Y, N94R, Y95F, Y97P
# notes: IgG
# B3: BIIB-12-928 (antibody, V domains shown)
# VH: B2 VH with S7F, G9V
# VL: B1 VL with S30R, D92Y, G93V, N94R, Y95F, Y97L
# notes: IgG
# B4: BIIB-12-904 (antibody, V domains shown)
# VH: QVQLVESGGGVVQPGRSLRLSCAASGFTFSSYGMHWVRQAPGKGLEWVAVISYDGSNKYYADSVKGRFTISRDNSKNTLYLQMNSLRAEDTAVYYCARGSGRSGYHYWGQGTLVTVSS
# VL: EIVMTQSPATLSVSPGERATLSCRASQSVSSNLAWYQQKPGQAPRLLIYGASTRATGIPARFSGSGSGTEFTLTISSLQSEDFAVYYCQQAFNWPPTFGGGTKVEIK
# notes: IgG
# B5: BIIB-12-1299 (antibody, V domains shown)
# VH: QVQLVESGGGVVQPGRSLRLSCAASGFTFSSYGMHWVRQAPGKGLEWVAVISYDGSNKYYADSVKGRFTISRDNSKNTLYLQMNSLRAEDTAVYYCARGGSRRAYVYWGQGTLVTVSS
# VL: B4 VL with A91L, F92N, W94F, P96I
# notes: IgG
# B6: BIIB-12-912 (antibody, V domains shown)
# VH: B4 VH with R98K, G99S, S100G, S103Y, H106D, Y107I, L113M
# VL: B4 VL with A91F, F92H, W94F
# notes: IgG
# B7: BIIB-12-906 (antibody, V domains shown)
# VH: B2 VH with G99S, G100S, T101R, Y102H, L103F, T105Y, Q108R
# VL: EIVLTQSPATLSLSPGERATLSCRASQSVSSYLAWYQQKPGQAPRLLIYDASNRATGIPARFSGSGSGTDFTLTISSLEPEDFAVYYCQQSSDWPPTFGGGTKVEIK
# notes: IgG
# B8: BIIB-12-1311 (antibody, V domains shown)
# VH: B2 VH with G100R, T101H, L103W, D104A, T105V
# VL: B4 VL with M4L, V13L, N32Y, G50D, T53N, E70D, Q79E, S80P, F92S, W94L
# notes: IgG
# B9: BIIB-12-893 (antibody, V domains shown)
# VH: QVQLVQSGAEVKKPGASVKVSCKASGYTFTSYYMVWVRQAPGQGLEWMGIINPSGGSTSYAQKFQGRVTMTRDTSTSTVYMELSSLRSEDTAVYYCARDPGRRQYSFYGMDVWGQGTTVTVSS
# VL: DIQLTQSPSSVSASVGDRVTITCRASQGISSWLAWYQQKPGKAPKLLIYAASSLQSGVPSRFSGSGSGTDFTLTISSLQPEDFATYYCQQAAAFPFTFGGGTKVEIK
# notes: IgG
# B10: BIIB-12-898 (antibody, V domains shown)
# VH: QVQLVQSGAEVKKPGASVKVSCKASGYTFTSYYMHWVRQAPGQGLEWMGIINPSGGSTTYAQKFQGRVTMTRDTSTSTVYMELSSLRSEDTAVYYCARGDRMLRAFDPWGQGTLVTVSS
# VL: B9 VL with S10T, V11L, G28A, A50D, Q55E, D70E, E81D, A91V, A92N, A93R
# notes: IgG
# B11: BIIB-12-1314 (antibody, V domains shown)
# VH: B2 VH with G100T, T101R, Y102W, L103A, D104G, T105N
# VL: B9 VL with L4M, A92N, A93F, F96I
# notes: IgG
# B12: BIIB-12-910 (antibody, V domains shown)
# VH: QVQLQESGPGLVKPSQTLSLTCTVSGGSISSGGYYWSWIRQHPGKGLEWIGSIYYSGSTYYNPSLKSRVTISVDTSKNQFSLKLSSVTAADTAVYYCARGPLQRQVRYFDLWGRGTLVTVSS
# VL: B9 VL with L4M, V11L, G28S, W32Y, A34N, A91L, A92S, A93H, F94T
# notes: IgG
# B13: BIIB-12-896 (antibody, V domains shown)
# VH: QVQLVQSGAEVKKPGASVKVSCKASGYTFTSYYMHWVRQAPGQGLEWMGIINPSGGSTSYAQKFQGRVTMTRDTSTSTVYMELSSLRSEDTAVYYCARGLGQQRRGFDIWGQGTLVTVSS
# VL: B9 VL with L4M, A92N, A93S
# notes: IgG
# B14: BIIB-12-908 (antibody, V domains shown)
# VH: B2 VH with G100P, T101R, Y102G, L103M, T105V, L111T
# VL: B9 VL with A50G, A91G, A92S, A93S, F94L, F96I
# notes: IgG
# B15: BIIB-12-1300 (antibody, V domains shown)
# VH: B2 VH with K98R, G100S, T101K, D104H, T105A
# VL: B9 VL with L4M, A92S, A93S, F96P
# notes: IgG
# B16: BIIB-12-1293 (antibody, V domains shown)
# VH: B13 VH with L100S, Q102G, Q103K, R104H, F107L, I109V, L115M
# VL: B9 VL with L4M, A92N, A93I
# notes: IgG
# B17: BIIB-12-1290 (antibody, V domains shown)
# VH: B13 VH with S54G, G99E, L100G, Q102R, Q103Y, R104V, F107M, I109V, L115T
# VL: B9 VL with L4M, A91G, A92F, A93S
# notes: IgG
# B18: BIIB-12-1294 (antibody, V domains shown)
# VH: B10 VH with T59S, D100T, M102S, L103S, A105D, F106M, P108V, L114T
# VL: DIQMTQSPSTLSASVGDRVTITCRASQSISSWLAWYQQKPGKAPKLLIYKASSLESGVPSRFSGSGSGTEFTLTISSLQPDDFATYYCQQVNTFPFTFGGGTKVEIK
# notes: IgG
# B19: BIIB-12-902 (antibody, V domains shown)
# VH: QVQLVQSGAEVKKPGASVKVSCKASGYTFTSYYMHWVRQAPGQGLEWMGIINPGGGSTSYAQKFQGRVTMTRDTSTSTVYMELSSLRSEDTAVYYCARGGPRRAYSWYFDYWGQGTLVTVSS
# VL: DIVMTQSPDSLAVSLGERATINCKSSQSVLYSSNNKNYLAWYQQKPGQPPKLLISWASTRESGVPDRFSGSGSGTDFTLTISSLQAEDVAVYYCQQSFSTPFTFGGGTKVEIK
# notes: IgG
# B20: BIIB-12-907 (antibody, V domains shown)
# VH: QVQLQESGPGLVKPSETLSLTCAVSGYSISSGYYWAWIRQPPGKGLEWIGSIYHSGSTYYNPSLKSRVTISVDTSKNQFSLKLSSVTAADTAVYYCARESGMSGAAYWGQGTLVTVSS
# VL: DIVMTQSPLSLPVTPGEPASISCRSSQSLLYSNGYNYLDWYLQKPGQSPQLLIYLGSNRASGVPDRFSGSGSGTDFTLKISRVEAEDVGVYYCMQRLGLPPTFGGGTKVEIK
# notes: IgG
# B21: BIIB-12-900 (antibody, V domains shown)
# VH: QVQLVQSGAEVKKPGASVKVSCKASGYTFTSYYMHWVRQAPGQGLEWMGIINPGGGSTSYAQKFQGRVTMTRDTSTSTVYMELSSLRSEDTAVYYCARSGGMYDRELGMDVWGQGTTVTVSS
# VL: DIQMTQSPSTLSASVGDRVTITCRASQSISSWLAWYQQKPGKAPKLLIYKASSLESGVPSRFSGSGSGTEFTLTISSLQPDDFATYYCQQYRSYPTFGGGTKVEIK
# notes: IgG
# B22: BIIB-12-901 (antibody, V domains shown)
# VH: B21 VH with H35S, G54S, G100R, G101P, M102R, Y103R, D104P, R105S, E106P, L107Y
# VL: EIVLTQSPATLSLSPGERATLSCRASQSVSSYLAWYQQKPGQAPRLLIYDASNRATGIPARFSGSGSGTDFTLTISSLEPEDFAVYYCQQSANFPFTFGGGTKVEIK
# notes: IgG
# B23: BIIB-12-895 (antibody, V domains shown)
# VH: B13 VH with L100G, Q102Y, Q103K, R104S, F107I, I109Y
# VL: DIQMTQSPSSVSASVGDRVTITCRASQGISSWLAWYQQKPGKAPKLLIYAASSLQSGVPSRFSGSGSGTDFTLTISSLQPEDFATYYCQQASSFPFTFGGGTKVEI
# notes: IgG
# B24: BIIB-12-903 (antibody, V domains shown)
# VH: B13 VH with G99D, Q102Y, Q103T, R104A, R105G, G106A, D108G, I109Y
# VL: B22 VL with S91R, F94W, F96P
# notes: IgG
# B25: BIIB-12-899 (antibody, V domains shown)
# VH: QVQLVQSGAEVKKPGASVKVSCKASGYTFTSYYMHWVRQAPGQGLEWMGIINPSGGSTSYAQKFQGRVTMTRDTSTSTVYMELSSLRSEDTAVYYCARGPRTSSPLYFDLWGRGTLVTVSS
# VL: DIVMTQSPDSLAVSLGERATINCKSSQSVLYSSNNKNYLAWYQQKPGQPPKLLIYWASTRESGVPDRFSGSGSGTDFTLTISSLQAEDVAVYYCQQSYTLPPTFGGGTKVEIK
# notes: IgG
# B26: BIIB-12-909 (antibody, V domains shown)
# VH: QVQLVESGGGVVQPGRSLRLSCAASGFTFSSYGMHWVRQAPGKGLEWVAVISYDGSNKYYADSVKGRFTISRDNSKNTLYLQMNSLRAEDTAVYYCAKGKHRRRSFDIWGQGTMVTVSS
# VL: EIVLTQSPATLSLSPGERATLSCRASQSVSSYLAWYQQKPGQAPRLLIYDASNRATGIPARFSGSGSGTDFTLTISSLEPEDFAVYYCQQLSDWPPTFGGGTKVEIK
# notes: IgG
# B27: BIIB-12-891 (antibody, V domains shown)
# VH: QVQLVQSGAEVKKPGASVKVSCKASGYTFTSYYIHWVRQAPGQGLEWMGIINPSGGSTSYAQKFQGRVTMTRDTSTSTVYMELSSLRSEDTAVYYCARASIYRGLGAFDIWGQGTMVTVSS
# VL: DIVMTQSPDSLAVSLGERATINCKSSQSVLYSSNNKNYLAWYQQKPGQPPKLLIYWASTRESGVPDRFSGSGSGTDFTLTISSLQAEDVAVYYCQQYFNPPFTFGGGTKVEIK
# notes: IgG
# B28: BIIB-12-892 (antibody, V domains shown)
# VH: B27 VH with I34M, A99G, S100L, I101G, Y102R, G104T, L105P, G106T
# VL: B22 VL with S91R, A92L, F94L, F96L
# notes: IgG
# B29: BIIB-12-911 (antibody, V domains shown)
# VH: QVQLVESGGGVVQPGRSLRLSCAASGFTFSSYGMHWVRQAPGKGLEWVAVISYDGSNKYYADSVKGRFTISRDNSKNTLYLQMNSLRAEDTAVYYCARGRGMDVWGQGTTVTVSS
# VL: B22 VL with S91R, A92S, F96I
# notes: IgG
# B30: BIIB-12-913 (antibody, V domains shown)
# VH: QVQLVQSGAEVKKPGASVKVSCKASGYTFTSYGISWVRQAPGQGLEWMGWISAYNGNTNYAQKLQGRVTMTTDTSTSTAYMELRSLRSDDTAVYYCARGGVSRFWGQGTLVTVSS
# VL: EIVMTQSPATLSVSPGERATLSCRASQSVSSNLAWYQQKPGQAPRLLIYGASTRATGIPARFSGSGSGTEFTLTISSLQSEDFAVYYCQQYAPYPPLTFGGGTKVEIK
# notes: IgG
# Molecular target: T1, non-activatable Factor X (FXn) (Homo sapiens (Human), UniProt P00742 41-488, single biotin on the C-terminal BioTag)
# T1 construct: also called BIIB-FX-015
# Test: BLI; class meaning: paragraph 285
row,binding result,Binder
1,binds,B1
2,binds,B2
3,binds,B3
4,binds,B4
5,binds,B5
6,binds,B6
7,binds,B7
8,binds,B8
9,binds,B9
10,binds,B10
11,binds,B11
12,binds,B12
13,binds,B13
14,binds,B14
15,binds,B15
16,binds,B16
17,binds,B17
18,binds,B18
19,binds,B19
20,binds,B20
21,binds,B21
22,binds,B22
23,binds,B23
24,binds,B24
25,binds,B25
26,binds,B26
27,binds,B27
28,binds,B28
29,binds,B29
30,binds,B30
